We go through one compound from publication PMC11533912 (Journal of Nuclear Medicine, 2024).

Data set [1] can be described thus: Biodistribution in tumor-free CD-1 mice. The class given is in vivo.
The conditions of data set [2]: in vivo.
The nature of data set [3]: Radio-HPLC stability/oxidation of drug product with and without excipients. The class given is physicochemical. The method, then:
DOTAM-GRPR1 (C77H119N23O17, Fig. 1) was manufactured by Macrocyclics using Fmoc solid-phase peptide synthesis. The peptide was isolated via reverse-phase high-performance liquid chromatography. Chelation was achieved by adding ^212Pb in ammonium acetate (Sigma-Aldrich) to DOTAM-GRPR1 alone or in the presence of 5% ethanol (Spectrum Chemical), up to 30 mM ascorbic acid (Honeywell), and 0.02% polysorbate 80 (J.T. Baker). Experiments were conducted for 10 min at either room temperature or 50°C.
Fractions were collected from the column every 6–10 s for up to 10 min and then analyzed for radiometric detection using an automatic γ-counter (Perkin Elmer Wizard^2 2470).
FIGURE 4. Radio–high-performance liquid chromatography showing optimized formulation conditions compared with no excipients added to chelation reaction. When chelation occurs with just ^212Pb and peptide, oxidation is visible at time of 0 h with percent main peak of 91% (A), which becomes unquantifiable at time of 24 h (B). However, with addition of ethanol, ascorbic acid, and polysorbate 80, percent main peak is 96% at time of 0 h (C) and remains high at 94% after 24 h (D). CPM = counts per minute; N/A = not applicable; T = time. […]

In a further data set the test system is PC-3 xenograft tumors. Kind of data set: α-imaging and biodistribution in PC-3 tumors of varying size. The class given is in vivo, mice. How it is done: (§1) For all tumor studies, 1 × 10^6 PC-3 cells were implanted subcutaneously into the right flank of each mouse in a mixture of equal volumes of HC-Matrigel (high concentration; Corning) and RPMI medium (Gibco) and grown to a volume of about 200–300 mm^3.
Images were analyzed using Andor Solis software (ImageJ).
FIGURE 5. Biodistribution in varying-size tumors and drug microdistribution in tumor using α-imaging of [^212Pb]Pb-DOTAM-GRPR1. […] (B) Biodistribution of drug at 4 h after injection in tumors measuring 150 mm^3 (n = 5), 300 mm^3 (n = 6), 600 mm^3 (n = 4), and 900 mm^3 (n = 3). In left panel, tissue uptake is expressed as %ID/g ± SD (P < 0.05). Right panel is expressed as %ID ± SD. H&E = hematoxylin and eosin; LWH = length × width × height.

The nature of data set [4]: Biodistribution at different specific activity (28, 140, 280 ng peptide). The class given is in vivo, PC-3 tumor-bearing mice. The method, then:
as §1
(§2) PC-3 tumors were grown in male mice until an approximate tumor volume of 300 mm^3 was reached. […] The background was automatically subtracted from the counts. A standard was also used for decay correction, and the percent injected dose (%ID) per gram of tissue was calculated for each organ collected.
(§3) FIGURE 3. In vivo distribution of [^212Pb]Pb-DOTAM-GRPR1. (A) In athymic nude male mice carrying subcutaneous PC-3 tumors, 370 kBq of drug were administered and organs were collected from 5 mice per time point: 1, 4, and 24 h after injection. (B) At different specific activity in PC-3 tumor-bearing mice, 370 kBq per 28, 140, or 280 ng of DOTAM-GRPR1 were administered and organs were collected from 5 mice per time point: 1, 4, and 24 h after injection. Tissue uptake is expressed as %ID/g ± SD (n = 5). All tissues with uptake below 2% at 1 h were excluded from graph. ***P = 0.00013 between 280 ng of pancreas and 28 ng of pancreas.

Data set [5] is described as follows: Biodistribution in PC-3 tumor-bearing mice. The class given is in vivo, athymic nude male mice. The method, then: as §1, §2, §3
[6] abbreviates: 370 kBq per 28, 140 or 280 ng DOTAM-GRPR1, PC-3 tumor-bearing mice.

Structures are written as SMILES. Entries after “also recorded” stand apart in the source; their conditions may differ.

In general, tissue uptake refers to the share of the injected amount in each gram of the tissue. A lower tissue uptake goes with low uptake. On to `CC(C)C[C@H](NC(=O)C[C@H](O)[C@H](CC(C)C)NC(=O)[C@H](Cc1c[nH]cn1)NC(=O)CNC(=O)[C@@H](NC(=O)[C@H](C)NC(=O)[C@H](Cc1c[nH]c2ccccc12)NC(=O)[C@H](CCC(N)=O)NC(=O)[C@@H](Cc1ccccc1)NC(=O)CCNC(=O)CCNC(=O)CN1CCN(CC(N)=O)CCN(CC(N)=O)CCN(CC(N)=O)CC1)C(C)C)C(N)=O` [[^212Pb]Pb-DOTAM-GRPR1, metal not drawn], for which the “Pancreas and kidney accumulation at 24 h” value in data set [1] (24 h after injection, pancreas and kidneys, strain not clearly stated) is recorded as “significantly less accumulation by 24 h after injection”. Also, the tissue uptake at 4 h in data set [1] (mouse, all tissues, intravenous, 4 h after drug administration, tumor-free CD-1 mice, 'well below') was under 10 %ID/g. Besides, in data set [1] (pancreas and kidneys, strain not clearly stated), the Nontarget uptake ranking result is “The pancreas and kidneys showed the highest nontarget uptake”. For the same compound, the “Biodistribution profile / accumulation in normal organs” value in data set [1] (tumor-free CD-1 mice) was “did not reveal any unexpected accumulation in normal organs”. For the same compound, the Route of excretion result in data set [2] is “predominantly renal route of excretion”. Also, the “Stability in optimized chelation formulation” value in data set [3] is listed as “increased the stability of the drug well beyond 24 h”. In the data set with PC-3 xenograft tumors (4 h after injection, tumors 150 (n = 5), 300 (n = 6), 600 (n = 4), 900 mm^3 (n = 3), visible in %ID/g but not in %ID), the “Correlation of tumor volume and tumor uptake” value is “negative correlation between tumor volume and tumor uptake; also recorded: lower tumor uptake in large tumors (%ID/g but not %ID)”. In the data set with PC-3 xenograft tumors (tumor sizes up to 900 mm^3, except necrotic areas), the “Microdistribution in PC-3 tumors (α-imaging, H&E)” value is “homogeneous distribution of the drug at various tumor sizes of up to 900 mm^3, except for the necrotic areas; also recorded: homogeneous microdistribution”. In data set [4] (setting [6]), the “Effect of low specific activity on tumor uptake” value is “did not negatively impact tumor uptake” and the “Effect of lowering specific activity on off-target accumulation” value is “low specific activity reduced off-target accumulation; also recorded: further reduced off-target accumulation, especially in the pancreas”. For the same compound, the “Reduction of pancreatic uptake on increasing peptide amount from 28 to 280 ng” value in data set [4] (370 kBq per 28 vs 280 ng DOTAM-GRPR1, PC-3 tumor-bearing mice, n = 5 per time point, P = 0.00013) was “about 30%”. Further, the “PC-3 tumor uptake over time” value in data set [5] (4–24 h after administration, 370 kBq, intravenous, athymic nude male mice, n = 5 per time point) is listed as “remained constant for 4–24 h after drug administration”. In data set [5] (PC-3 tumor-bearing mice), the “Washout, pancreas versus tumor” value is “faster washout was observed from the pancreas than from tumor tissues”. In addition, in data set [5] (mouse, PC-3 tumor, 1 h after administration, 370 kBq, intravenous (tail vein), athymic nude male mice, n = 5 per time point), the tissue uptake at 1 h was about 5 %ID/g. Further, the “Biodistribution profile, activity in nontumor tissues” value in data set [5] (nonclinical, mice) was “safe biodistribution profile with a considerably low activity in nontumor tissues”. Further, in data set [5] (up to value, over 24 h, intravenous, GRPR-positive prostate tumor-bearing mice), the Tumor targeting result was “up to 5 percent injected dose per gram”. The “Kidney uptake compared with radiolabeled somatostatin receptor ligands such as [^212Pb]Pb-DOTAMTATE with renal blocker” value in data set [5] (without renal blocker, comparator ref 9) is reported as “well below kidney retention values of radiolabeled somatostatin receptors ligands”.
